Assay in all cases: SPR
(In general: Surface plasmon resonance follows binding to a sensor surface in real time, without labels.)

Assay [1] addresses mFcγRII extracellular domain from SCID mice (ly17.2 variant), 6xHis (mouse) (UniProt P08101).
Assay [2] deals with mFcγRII extracellular domain from NOD SCID mice (ly17.1 variant), 6xHis (mouse) (UniProt P08101).
For assay [3], the target named is hIgG1 #2 (human).
In assay [4] the target is mIgG2a #2 (mouse).
Assay [5] concerns the target hIgG1 #1 (human).
Assay [6] addresses hIgG2 #1 (human).
Assay [7] addresses mIgG2a #1 (mouse).
For assay [8], the target named is mIgG1 #1 (mouse).
For assay [9], the target named is hIgG2 #2 (human).
In assay [10] the target is mIgG1 #2 (mouse).
For assay [11], the target named is hIgG1 #2 (human). The source holds these as a separate data set.
For assay [12], the target named is mIgG2a #2 (mouse). This is another data set of the same source.
For assay [13], the target named is hIgG1 #1 (human). The source holds these as a separate data set.
For assay [14], the target named is hIgG2 #1 (human). This is another data set of the same source.
Assay [15] deals with mIgG2a #1 (mouse). The source holds these as a separate data set.
Assay [16] addresses mIgG1 #1 (mouse). The source holds these as a separate data set.
Assay [17] has as its target hIgG2 #2 (human). This is another data set of the same source.
Assay [18] deals with mIgG1 #2 (mouse). The source holds these as a separate data set.

Like-named read-outs stand apart in the source and are kept apart here.

The Kd is a measure of binding affinity in units of concentration. The low end stands for higher affinity, the high end for lower affinity.

UniProt P08101, sequence (P08101 1-207, change not shown): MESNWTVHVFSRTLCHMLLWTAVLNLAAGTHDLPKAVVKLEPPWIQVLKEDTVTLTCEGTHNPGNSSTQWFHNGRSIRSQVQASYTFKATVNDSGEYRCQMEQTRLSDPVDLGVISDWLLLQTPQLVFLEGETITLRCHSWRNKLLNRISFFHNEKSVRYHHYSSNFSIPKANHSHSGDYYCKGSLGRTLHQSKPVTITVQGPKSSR

For the molecule Cetuximab (hIgG1) (antibody), the Kd in [1] came to 5420 nM; in [2] it was 4380 nM.

As for Rituximab mIgG1 (antibody), the Kd in assay [1] was 2020 nM; in [2] it was 2250 nM.

Rituximab mIgG2a (antibody): the dissociation constant (Kd) stood at 2630 nM in [1] and 2430 nM in assay [2].

B1: Recombinant mFcγRII (R&D systems) (receptor)
chain: THDLPKAVVKLEPPWIQVLKEDTVTLTCEGTHNPGNSSTQWFHNGRSIRSQVQASYTFKATVNDSGEYRCQMEQTRLSDPVDLGVISDWLLLQTPQLVFLEGETITLRCHSWRNKLLNRISFFHNEKSVRYHHYSSNFSIPKANHSHSGDYYCKGSLGRTLHQSKPVTITVQGPKSSRSLP
Regarding B1, the Kd with hIgG1 #2 (human) [3] stood at 79 nM; with mIgG2a #2 (mouse) [4] it was 24.1 nM; with hIgG1 #1 (human) [5], 49.2 nM; with hIgG2 #1 (human) [6], 210 nM; in the assay with mIgG2a #1 (mouse) [7], 23.6 nM; with mIgG1 #1 (mouse) [8], 2.77 nM. Moreover, the Kd turned out to be 218 nM with hIgG2 #2 (human) [9]; 3.62 nM with mIgG1 #2 (mouse) [10]; 6610 nM with hIgG1 #2 (human) [11]; 1100 nM in the assay with mIgG2a #2 (mouse) [12]; 3020 nM in the assay with hIgG1 #1 (human) [13]; 7650 nM in the assay with hIgG2 #1 (human) [14]. Also, the Kd with mIgG2a #1 (mouse) [15] came out at 1180 nM; with mIgG1 #1 (mouse) [16] it was 274 nM; with hIgG2 #2 (human) [17], 14500 nM; in the assay with mIgG1 #2 (mouse) [18] it was 498 nM.

Source of the values: article PMC7304853.
